# Laboratory results reported in patent EP4729546A1 (Jiangsu BioJeTay Biotechnology Co., Ltd., dated 2026).
# Numbering of substitutions follows the chain as printed.
# T1: huFXII-his (human, UniProt P00748 20-615)
# T1 sequence (looked up): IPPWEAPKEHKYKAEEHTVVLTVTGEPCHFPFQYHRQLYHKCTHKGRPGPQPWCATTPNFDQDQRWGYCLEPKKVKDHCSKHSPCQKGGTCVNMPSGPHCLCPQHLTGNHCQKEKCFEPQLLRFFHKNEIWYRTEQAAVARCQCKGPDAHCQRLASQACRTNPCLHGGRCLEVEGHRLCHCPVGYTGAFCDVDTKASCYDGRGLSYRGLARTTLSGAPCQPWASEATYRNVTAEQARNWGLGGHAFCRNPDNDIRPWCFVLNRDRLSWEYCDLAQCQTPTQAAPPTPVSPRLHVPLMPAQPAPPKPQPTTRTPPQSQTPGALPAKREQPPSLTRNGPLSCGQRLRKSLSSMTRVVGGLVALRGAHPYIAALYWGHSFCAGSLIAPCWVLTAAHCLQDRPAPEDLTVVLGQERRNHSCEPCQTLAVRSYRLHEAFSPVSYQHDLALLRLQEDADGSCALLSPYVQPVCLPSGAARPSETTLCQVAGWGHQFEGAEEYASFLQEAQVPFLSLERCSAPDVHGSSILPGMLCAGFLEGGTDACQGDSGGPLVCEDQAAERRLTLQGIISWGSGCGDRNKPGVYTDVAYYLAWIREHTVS
# B1: FX-Y17-Y28 (antibody, V domains shown)
# VH: EVQLLESGGGLVQPGGSLRLSCAGSGFSFGSQTMSWVRQAPGKGLEWVSSISVISGRTYYADSVKGRFTISRDNSKNTLYLQMNSLRAEDTAVYYCTKQHAFDVWGQGTMVTVSS
# VL: EIVLTQSPATLSVSPGERATLSCRASQSVYSALAWYQQKPGQAPRLLIYGASTRATGIPARFSGSGSGTEFTLTISSLQSEDFAVYYCQQYHKWPLSFGGGTKVEIK
# B2: FX-Y17-Y33 (antibody, V domains shown)
# VH: B1 VH with T58K, Q99S
# VL: B1 VL
# B3: FX-Y17-Y6 (antibody, V domains shown)
# VH: B1 VH with V53Y, Q99S
# VL: B1 VL
# B4: FX-Y17-Y35 (antibody, V domains shown)
# VH: B1 VH with T58D, T97A, Q99S
# VL: B1 VL
# B5: FX-Y17-Y36 (antibody, V domains shown)
# VH: B1 VH with G56K, Q99S
# VL: B1 VL
# B6: FX-Y17-Y38 (antibody, V domains shown)
# VH: B1 VH with G56R, T97A, Q99S
# VL: B1 VL
# B7: FX-Y17-Y39 (antibody, V domains shown)
# VH: B1 VH with V53H, Q99S, A101D
# VL: B1 VL with Y91N, H92N
# B8: FX-Y17-Y41 (antibody, V domains shown)
# VH: B1 VH with T58R, T97A, Q99S
# VL: B1 VL
# B9: FX-Y17-Y42 (antibody, V domains shown)
# VH: B1 VH with F29L, T58M, Q99S
# VL: B1 VL
# B10: FX-Y17-Y43 (antibody, V domains shown)
# VH: B1 VH with I51S, K98R, Q99S
# VL: B1 VL
# B11: FX-Y17-Y2 (antibody, V domains shown)
# VH: B1 VH with V53H, Q99S
# VL: B1 VL with Y91N, H92N
# B12: FX-Y17-Y3 (antibody, V domains shown)
# VH: B1 VH with V53Y, Q99S
# VL: B1 VL with Y30W, A32N
# B13: FX-Y17-Y30 (antibody, V domains shown)
# VH: B1 VH with T97A, Q99S
# VL: B1 VL with Y30F, A32N, K93W
# B14: FX-Y17-Y31 (antibody, V domains shown)
# VH: B1 VH with T58N, T97A, Q99S
# VL: B1 VL with Y30W, A32N
# B15: FX-Y17-Y5 (antibody, V domains shown)
# VH: B1 VH with T58Y, Q99S
# VL: B1 VL
# B16: FX-Y17-Y7 (antibody, V domains shown)
# VH: B1 VH with T58A, Q99S
# VL: B1 VL
# B17: FX-Y17-Y8 (antibody, V domains shown)
# VH: B1 VH with G56R, Q99S
# VL: B1 VL with Y30W, A32N
# B18: FX-Y17-Y9 (antibody, V domains shown)
# VH: B1 VH with T58K, T97A, Q99S
# VL: B1 VL
# B19: FX-Y17-Y37 (antibody, V domains shown)
# VH: B1 VH with T58S, Q99S
# VL: B1 VL with Y30W, A32N
# B20: FX-Y17-Y10 (antibody, V domains shown)
# VH: B1 VH with T58A, Q99A
# VL: B1 VL
# B21: FX-Y17-Y12 (antibody, V domains shown)
# VH: B1 VH with Q99W
# VL: B1 VL with V29L, A32H, H92K
# B22: FX-Y17-Y40 (antibody, V domains shown)
# VH: B1 VH with Q99A
# VL: B1 VL with Y30W, A32N
# B23: FX-Y17-Y13 (antibody, V domains shown)
# VH: B1 VH with G56R, K98R, Q99S
# VL: B1 VL with A32N
# B24: FX-Y17-Y14 (antibody, V domains shown)
# VH: B1 VH with V53H, Q99S, A101R
# VL: B1 VL with Y91N, H92N
# B25: FX-Y17-Y15 (antibody, V domains shown)
# VH: B1 VH with T58P, Q99S
# VL: B1 VL
# B26: FX-Y17-Y16 (antibody, V domains shown)
# VH: B1 VH with T58S, T97A, Q99S
# VL: B1 VL
# B27: FX-Y17-Y17 (antibody, V domains shown)
# VH: B1 VH with V53Y, Q99G
# VL: B1 VL with Y30W, A32N
# B28: FX-Y17-Y46 (antibody, V domains shown)
# VH: B1 VH with V53Y, Q99G
# VL: B1 VL with Y30W, A32N, H92Q
# B29: FX-Y17-Y18 (antibody, V domains shown)
# VH: B1 VH with T58S, Q99H
# VL: B1 VL with Y30W, A32N
# B30: FX-Y17-Y19 (antibody, V domains shown)
# VH: B1 VH with G56K, K98R, Q99S
# VL: B1 VL
# B31: FX-Y17-Y20 (antibody, V domains shown)
# VH: B1 VH with T58S, Q99S
# VL: B1 VL
# B32: FX-Y17-Y21 (antibody, V domains shown)
# VH: B1 VH with V53H, T97A, Q99S
# VL: B1 VL with Y91N, H92N
# B33: FX-Y17-Y23 (antibody, V domains shown)
# VH: B1 VH with T58S, K98R, Q99S
# VL: B1 VL with Y30W, A32N
# B34: FX-Y17-Y22 (antibody, V domains shown)
# VH: B1 VH with V53Y, K98R, Q99S
# VL: B1 VL with Y30W, A32N
# B35: FX-Y17-Y1 (antibody, V domains shown)
# VH: B1 VH with G56R, Q99S
# VL: B1 VL
# Target: T1, huFXII-his
# Test: cell-based or functional assay
row,IC50 of inhibition of cleavage of chemical substrate S2302 by FXIIa (OD405),Binder
1,0.0267 µg/mL,B1
2,0.022 µg/mL,B2
3,0.0157 µg/mL,B3
4,0.0139 µg/mL,B4
5,0.0155 µg/mL,B5
6,0.016 µg/mL,B6
7,0.0422 µg/mL,B7
8,0.019 µg/mL,B8
9,0.0177 µg/mL,B9
10,0.0146 µg/mL,B10

# Target: huFXII-his (human) (UniProt P00748)
# Test: ELISA, huFXII-his coated at 1 µg/ml, HRP anti-human secondary, OD450
row,EC50,Binder
1,0.164 µg/mL,B11
2,0.216 µg/mL,B12
3,0.083 µg/mL,B13
4,0.117 µg/mL,B14
5,0.167 µg/mL,B15
6,0.136 µg/mL,B16
7,0.237 µg/mL,B17
8,0.228 µg/mL,B18
9,0.0629 µg/mL,B19
10,0.161 µg/mL,B20
11,0.364 µg/mL,B21
12,0.0781 µg/mL,B22
13,0.128 µg/mL,B23
14,0.14 µg/mL,B24
15,0.131 µg/mL,B25
16,0.125 µg/mL,B26
17,0.169 µg/mL,B27
18,0.257 µg/mL,B28
19,0.172 µg/mL,B29
20,0.149 µg/mL,B30
21,0.127 µg/mL,B31
22,0.101 µg/mL,B32
23,0.0942 µg/mL,B33
24,0.187 µg/mL,B34
25,0.151 µg/mL,B35

# Target: huFXII-his (human) (UniProt P00748)
# Test: cell-based or functional assay
row,IC50 of inhibition of cleavage of chemical substrate S2302 by FXIIa (OD405),Binder
1,0.0178 µg/mL,B11
2,0.0154 µg/mL,B12
3,0.0127 µg/mL,B13
4,0.0156 µg/mL,B14
5,0.0254 µg/mL,B15
6,0.02 µg/mL,B16
7,0.0196 µg/mL,B17
8,0.0244 µg/mL,B18
9,0.0143 µg/mL,B19
10,0.028 µg/mL,B20
11,0.0296 µg/mL,B21
12,0.0155 µg/mL,B22
13,0.0259 µg/mL,B23
14,0.0138 µg/mL,B24
15,0.0202 µg/mL,B25
16,0.021 µg/mL,B26
17,0.0199 µg/mL,B27
18,0.0321 µg/mL,B28
19,0.0242 µg/mL,B29
20,0.0214 µg/mL,B30
21,0.0187 µg/mL,B31
22,0.0132 µg/mL,B32
23,0.0129 µg/mL,B33
24,0.0202 µg/mL,B34
25,0.0237 µg/mL,B35
